Paper doi:10.1101/2022.11.05.515280
Like-named read-outs stand apart in the source and are kept apart here.

Assays:
[1] = target: human Mcl-1 ΔPESTΔTM (human); experiment: NMR titration
[2] = target: human Mcl-1 ΔPESTΔTM (human); experiment: NMR titration; remark: listed apart in the source
[3] = target: human Mcl-1 ΔPESTΔTM (human); experiment: SEC + other: SAXS

## Mule BH3 peptide (MuleBH3)
[1]
  relative population of Mcl-1 bound, in the mix of three peptides: 55%

## DEMFSDIYKIREIADGLCLEVE [TCTP BH3-like peptide (TCTPBH3)]
[2]
  Kd: 7.9 µM
  fold weaker relative affinity than TCTPBH3D16I and MuleBH3: > 10 fold

B1: full length human TCTP (Translationally Controlled Tumour Protein) (natural protein)
chain: MIIYRDLISHDEMFSDIYKIREIADGLCLEVEGKMVSRTEGNIDDSLIGGNASAEGPEGEGTESTVITGVDIVMNHHLQETSFTKEAYKKYIKDYMKSIKGKLEEQRPERVKPFMTGAAEQIKHILANFKNYQFFIGENMNPDGMVALLDYREDGVTPYMIFFKDGLEMEKC
[3]
  stoichiometry N: 1

## DEMFSIIYKIREIADGLCLEVE [TCTP BH3-like peptide D16I mutant (TCTP_(BH3D16I))]
[2]
  relative population of Mcl-1 bound, in the mix of three peptides: 45%
